# B1: CYP440A18 (BbEAS/AOS) (Branchiostoma belcheri) (protein)
# chain: MGNAIGYLKWLGQGKQAFAPDRKEDFVETNIGFPCRVVTGNKAVQSVFDIDLFKKEEFFFGLIEIRKEFTEGVCPSVTSNGKIHEKNKALMMDVIAGAYEEIPTSTADAVLSNIATWGSTPTDFESKLMAVSAGIFLPTIFGRSTRFNPEDVNLYVKGATELRSDILAAVTREDLTETRRGMRSVLEKIKTSERYSQLIDLGRSHGLDEASTTGQLLFCVMFNAVGGTATNLVATFGRLDTISAEDRQELREEALAALRKHGGLTRAALEEMPKIESFVLEVLRTCPSPGVWSHIAARPTTVKYTTASGPKEVNIKEGERVYASPYWALRDPAVFDKPDDFVWRRFLGPEGEALREHHVTFHGRLTDSAAVNNHMCPGRDVALSVIKGSIAILNTFFGWELQERPFWTGTKVSRIGQPDNVVKVKSFWLQHPDDLKEIFPSHFEEIHDSLNSAVLQCP
# notes: full-length, 458 aa; codon-adapted synthetic gene in pET-23a; C-terminal His tag; E. coli BL21(DE3)pLysS; IMAC purified
# How the values were obtained:
# Assay in all cases: purified protein
# Format in all cases: biochemical, Branchiostoma belcheri
# Conditions in all cases: Na phosphate buffer (pH range 6.0-8.0 stated; optimum pH 7.0), 25 °C, substrate 5-150 μM
# [1] = substrate: CCCCC/C=C\C=C\[C@H](CCCCCCCC(=O)O)OO
# [2] = substrate: CC/C=C\C[C@@H](/C=C/C=C\CCCCCCCC(=O)O)OO
# [3] = substrate: CC/C=C\C/C=C\C=C\[C@H](CCCCCCCC(=O)O)OO
# [4] = substrate: CCCCC[C@@H](/C=C/C=C\CCCCCCCC(=O)O)OO
protein,measurement,setting,value
B1,Km,[1],37.0 µM
same,kcat,[1],164 s⁻¹
same,kcat/Km,[1],4.4e+06 M⁻¹ s⁻¹
same,Km,[2],17.6 µM
same,kcat,[2],432 s⁻¹
same,kcat/Km,[2],2.45e+07 M⁻¹ s⁻¹
same,Km,[3],31.8 µM
same,kcat,[3],248 s⁻¹
same,kcat/Km,[3],7.8e+06 M⁻¹ s⁻¹
same,Km,[4],18.6 µM
same,kcat,[4],174 s⁻¹
same,kcat/Km,[4],9.4e+06 M⁻¹ s⁻¹

# Reference: article PMC8124189, “Detection of the First Epoxyalcohol Synthase/Allene Oxide Synthase (CYP74 Clan) in the Lancelet (Branchiostoma belcheri, Chordata)” (International Journal of Molecular Sciences, 2021)
